Key:
Assay in all cases: ELISA; receptor in solution, complex captured on BMP-7 GF mAb
[1] = biological target: BMP-7 complex containing biotinylated prodomain (prodomain biotinylated through amines, reconstituted with … (human, UniProt P18075 293-431, biotin through amines (EZ-Link NHS-PEG4-Biotin)))
[2] = biological target: unbiotinylated BMP-7 complex (bone morphogenetic protein 7 mature domain/prodomain soluble complex) (human, UniProt P18075 293-431)
[3] = biological target: BMP-7 complex containing biotinylated GF (mature BMP-7 biotinylated through the glycan, reconstituted with … (human, UniProt P18075 293-431, biotin through the sugars (sodium metaperiodate, hydrazide PEG4 Biotin)))
BMP-7 complex containing biotinylated GF (mature BMP-7 biotinylated through the glycan, reconstituted with …, sequence (P18075 30-292, chain 1 of 2): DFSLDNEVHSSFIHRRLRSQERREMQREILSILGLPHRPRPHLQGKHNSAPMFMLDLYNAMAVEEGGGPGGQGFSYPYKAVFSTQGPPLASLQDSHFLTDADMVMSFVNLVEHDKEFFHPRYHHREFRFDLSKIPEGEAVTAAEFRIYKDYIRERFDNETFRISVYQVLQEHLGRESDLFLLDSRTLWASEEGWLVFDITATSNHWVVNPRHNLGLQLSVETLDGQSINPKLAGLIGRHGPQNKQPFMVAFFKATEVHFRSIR
BMP-7 complex containing biotinylated GF (mature BMP-7 biotinylated through the glycan, reconstituted with …, sequence (P18075 293-431, chain 2 of 2): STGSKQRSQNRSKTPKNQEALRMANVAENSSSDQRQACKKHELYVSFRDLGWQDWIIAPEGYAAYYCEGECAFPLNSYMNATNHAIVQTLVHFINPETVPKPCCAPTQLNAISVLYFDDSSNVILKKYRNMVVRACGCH

BMP-7 complex containing biotinylated prodomain (prodomain biotinylated through amines, reconstituted with …, sequence (P18075 30-292, chain 1 of 2): as the sequence (P18075 30-292, chain 1 of 2) above
BMP-7 complex containing biotinylated prodomain (prodomain biotinylated through amines, reconstituted with …, sequence (P18075 293-431, chain 2 of 2): as the sequence (P18075 293-431, chain 2 of 2) above
unbiotinylated BMP-7 complex (bone morphogenetic protein 7 mature domain/prodomain soluble complex), sequence (P18075 30-292, chain 1 of 2): as the sequence (P18075 30-292, chain 1 of 2) above
unbiotinylated BMP-7 complex (bone morphogenetic protein 7 mature domain/prodomain soluble complex), sequence (P18075 293-431, chain 2 of 2): as the sequence (P18075 293-431, chain 2 of 2) above

- Kd [1]: 19 nM
- Kd [2]: 11.9 nM
- Kd [3]: 8.7 nM
B1: BMPR2-Fc (bone morphogenetic protein receptor type-2 fused to Fc) (Fc fusion)
chain: SQNQERLCAFKDPYQQDLGIGESRISHENGTILCSKGSTCYGLWEKSKGDINLVKQGCWSHIGDPQECHYEECVVTTTPPSIQNGTYRFCCCSTDLCNVNFTENFPPPDTTPLSPPHSFNRDET

Reference: PMC8801479 (2021)
